Biological target: T1, SARS-COV2-N-B1617 (N protein of SARS-CoV-2 variant B1617) (SARS-CoV-2 variant B1617)
T1 construct: also called 冠状病毒SARS-COV2变异株B1617

B1: 单克隆抗体OP2 (anti-SARS-CoV-2 N protein monoclonal antibody OP2) (antibody, V domains shown)
VH: DVQLVESGGGLVQPGGSRKLSCAASGSTFSNFGMHWVRQAPEKGLEWVAYISSASSIIYYADTVKGRFTISRDNPKNTLFLQMTSLRSEDTAMYYCARSAMDYWGQGTSVTVSS
VL: DIVLTQSPASLAVSLGQRATISCKASQSVNYSGDSYMNWFQQKPGQPPKLLIYAASNLESGIPARFSGSGSGTDFTLNIHPVEEEDAATYYCQQSEEQPYTFGGGTKLEIK
notes: also called 抗N蛋白的抗体
EC50: 0.0166 µg/mL

From patent CN115028713A (JIANGSU DONGKANG BIOMEDICAL TECH CO LTD, dated 2022)
